The assay concerns Staphylococcus aureus ATCC 6538. The assay can be described thus: Modified ASTM E2315 test of low pH therapeutic with AMPs, acid neutralized after one minute. It counts as cell-based. From the text:
Since the reaction speed of the two different MOAs are different, a modified test protocol was developed, which is summarized below. • a. […] Heretofore, it has been believed that AMPs are unstable in low pH environments. Mixture of dry powder immediately prior to use is believed to address concerns regarding minimization of in vitro stability. • b. The prepared AMP solution was then mixed with the bacteria containing media. After one minute the acid solution was neutralized. This simulates the short antimicrobial period for the elevated proton concentration in vivo. The bacteria population was measured to determine efficacy after one minute. • c. The AMPs retained in the solution are not expected to stop their antimicrobial activity after acid neutralization, so a second bacteria population measurement was made after 24 hours. [table]

“Also recorded” adds a separate entry of the source.

B1: lactoferrin (protein, UniProt P02788 20-710, looked up)
Lactotransferrin: GRRRSVQWCAVSQPEATKCFQWQRNMRKVRGPPVSCIKRDSPIQCIQAIAENRADAVTLDGGFIYEAGLAPYKLRPVAAEVYGTERQPRTHYYAVAVVKKGGSFQLNELQGLKSCHTGLRRTAGWNVPIGTLRPFLNWTGPPEPIEAAVARFFSASCVPGADKGQFPNLCRLCAGTGENKCAFSSQEPYFSYSGAFKCLRDGAGDVAFIRESTVFEDLSDEAERDEYELLCPDNTRKPVDKFKDCHLARVPSHAVVARSVNGKEDAIWNLLRQAQEKFGKDKSPKFQLFGSPSGQKDLLFKDSAIGFSRVPPRIDSGLYLGSGYFTAIQNLRKSEEEVAARRARVVWCAVGEQELRKCNQWSGLSEGSVTCSSASTTEDCIALVLKGEADAMSLDGGYVYTAGKCGLVPVLAENYKSQQSSDPDPNCVDRPVEGYLAVAVVRRSDTSLTWNSVKGKKSCHTAVDRTAGWNIPMGLLFNQTGSCKFDEYFSQSCAPGSDPRSNLCALCIGDEQGENKCVPNSNERYYGYTGAFRCLAENAGDVAFVKDVTVLQNTDGNNNEAWAKDLKLADFALLCLDGKRKPVTEARSCHLAMAPNHAVVSRMDKVERLKQVLLHQQAKFGRNGSDCPDKFCLFQSETKNLLFNDNTECLARLHGKTTYEKYLGPQYVAGITNLKKCSTSPLLEACEFLRK
Take B1: where the note is “bacteria population after one minute, then acid neutralized, no soiling, single-replicant”, the “1-min Efficacy (log)” value came to 0.05 log. Further, under “comparison of Table 3 examples”, the “Efficacy on S. aureus, conclusion in words” value is “minimal efficacy; also recorded: not effective”. Further, the “24-hour Efficacy (log)” value (second bacteria population measurement after 24 hours, acid neutralized after one minute) is on record as 0.16 log.

The record behind these values is US20240000899A1, “THERAPEUTIC USEFUL AGAINST ANTIMICROBIAL RESISTANT AGENTS” (priority 2022, published 2024).
